# ± gives the uncertainty stated by the source.
# B1: Myocardin-related transcription factor A, residues 341 to 383; numbered along this chain, Q969V6 (parent)
# chain: GALPANLDDMKVAELKQELKLRSLPVSGTKTELIERLRAYQDQ
# B2: Tumor protein 63, residues 545 to 610; numbered along this chain, Q9H3D4 (parent)
# chain: TDCSIVSFLARLGCSSCLDYFTTQGLTTIYQIEHYSMDDLASLKIPEQFRHAIWKGILDHRQLHEF
# Variants of: B1
# Assay: abundance fitness (aPCA) (normalised: wild type 0, dead -1); higher = more abundant; growth selection in yeast, the domain comes from the species named
# Conditions: Homo sapiens
row,Variant,abundance fitness
1,SALPANLDDMKVAELKQELKLRSLPVSGTKTELIERLRAYQDQ,-0.438 ± 0.44
2,NALPANLDDMKVAELKQELKLRSLPVSGTKTELIERLRAYQDQ,-0.205 ± 0.11
3,RALPANLDDMKVAELKQELKLRSLPVSGTKTELIERLRAYQDQ,-0.165 ± 0.16
4,AALPANLDDMKVAELKQELKLRSLPVSGTKTELIERLRAYQDQ,-0.918 ± 0.12
5,DALPANLDDMKVAELKQELKLRSLPVSGTKTELIERLRAYQDQ,-0.587 ± 0.09
6,VALPANLDDMKVAELKQELKLRSLPVSGTKTELIERLRAYQDQ,-0.384 ± 0.17
7,EALPANLDDMKVAELKQELKLRSLPVSGTKTELIERLRAYQDQ,-0.303 ± 0.12
8,QALPANLDDMKVAELKQELKLRSLPVSGTKTELIERLRAYQDQ,-0.306 ± 0.088
9,CALPANLDDMKVAELKQELKLRSLPVSGTKTELIERLRAYQDQ,-0.605 ± 0.17
10,GALPMNLDDMKVAELKQELKLRSLPVSGTKTELIERLRAYQDQ,0.292 ± 0.07
11,GALPINLDDMKVAELKQELKLRSLPVSGTKTELIERLRAYQDQ,0.249 ± 0.14
12,GALPRNLDDMKVAELKQELKLRSLPVSGTKTELIERLRAYQDQ,0.064 ± 0.068
13,GALPTNLDDMKVAELKQELKLRSLPVSGTKTELIERLRAYQDQ,0.185 ± 0.069
14,GALPPNLDDMKVAELKQELKLRSLPVSGTKTELIERLRAYQDQ,-0.845 ± 0.077
15,GALPSNLDDMKVAELKQELKLRSLPVSGTKTELIERLRAYQDQ,-0.107 ± 0.073
16,GALPKNLDDMKVAELKQELKLRSLPVSGTKTELIERLRAYQDQ,0.109 ± 0.097
17,GALPLNLDDMKVAELKQELKLRSLPVSGTKTELIERLRAYQDQ,0.045 ± 0.071
18,GALPNNLDDMKVAELKQELKLRSLPVSGTKTELIERLRAYQDQ,0.215 ± 0.088
19,GALPENLDDMKVAELKQELKLRSLPVSGTKTELIERLRAYQDQ,0.216 ± 0.089
20,GALPGNLDDMKVAELKQELKLRSLPVSGTKTELIERLRAYQDQ,0.081 ± 0.059
21,GALPFNLDDMKVAELKQELKLRSLPVSGTKTELIERLRAYQDQ,-0.012 ± 0.17
22,GALPWNLDDMKVAELKQELKLRSLPVSGTKTELIERLRAYQDQ,-0.655 ± 0.085
23,GALPQNLDDMKVAELKQELKLRSLPVSGTKTELIERLRAYQDQ,-0.025 ± 0.099
24,GRLPANLDDMKVAELKQELKLRSLPVSGTKTELIERLRAYQDQ,0.034 ± 0.12
25,GKLPANLDDMKVAELKQELKLRSLPVSGTKTELIERLRAYQDQ,0.588 ± 0.2
26,GDLPANLDDMKVAELKQELKLRSLPVSGTKTELIERLRAYQDQ,0.26 ± 0.12
27,GMLPANLDDMKVAELKQELKLRSLPVSGTKTELIERLRAYQDQ,0.433 ± 0.09

row,Variant,abundance fitness
1,GLLPANLDDMKVAELKQELKLRSLPVSGTKTELIERLRAYQDQ,0.208 ± 0.11
2,GWLPANLDDMKVAELKQELKLRSLPVSGTKTELIERLRAYQDQ,-0.145 ± 0.1
3,GPLPANLDDMKVAELKQELKLRSLPVSGTKTELIERLRAYQDQ,-0.041 ± 0.12
4,GSLPANLDDMKVAELKQELKLRSLPVSGTKTELIERLRAYQDQ,0.209 ± 0.094
5,GGLPANLDDMKVAELKQELKLRSLPVSGTKTELIERLRAYQDQ,0.035 ± 0.061
6,GELPANLDDMKVAELKQELKLRSLPVSGTKTELIERLRAYQDQ,0.136 ± 0.34
7,GTLPANLDDMKVAELKQELKLRSLPVSGTKTELIERLRAYQDQ,0.161 ± 0.16
8,GQLPANLDDMKVAELKQELKLRSLPVSGTKTELIERLRAYQDQ,0.34 ± 0.32
9,GFLPANLDDMKVAELKQELKLRSLPVSGTKTELIERLRAYQDQ,0.024 ± 0.15
10,GCLPANLDDMKVAELKQELKLRSLPVSGTKTELIERLRAYQDQ,-0.077 ± 0.092
11,GALDANLDDMKVAELKQELKLRSLPVSGTKTELIERLRAYQDQ,0.213 ± 0.066
12,GALQANLDDMKVAELKQELKLRSLPVSGTKTELIERLRAYQDQ,0.293 ± 0.2
13,GALLANLDDMKVAELKQELKLRSLPVSGTKTELIERLRAYQDQ,0.322 ± 0.11
14,GALAANLDDMKVAELKQELKLRSLPVSGTKTELIERLRAYQDQ,0.079 ± 0.059
15,GALEANLDDMKVAELKQELKLRSLPVSGTKTELIERLRAYQDQ,0.349 ± 0.11
16,GALSANLDDMKVAELKQELKLRSLPVSGTKTELIERLRAYQDQ,0.245 ± 0.065
17,GALWANLDDMKVAELKQELKLRSLPVSGTKTELIERLRAYQDQ,0.057 ± 0.081
18,GALHANLDDMKVAELKQELKLRSLPVSGTKTELIERLRAYQDQ,0.093 ± 0.1
19,GALCANLDDMKVAELKQELKLRSLPVSGTKTELIERLRAYQDQ,0.211 ± 0.081
20,GALFANLDDMKVAELKQELKLRSLPVSGTKTELIERLRAYQDQ,-0.263 ± 0.24
21,GALKANLDDMKVAELKQELKLRSLPVSGTKTELIERLRAYQDQ,0.17 ± 0.12
22,GALTANLDDMKVAELKQELKLRSLPVSGTKTELIERLRAYQDQ,0.243 ± 0.078
23,GALRANLDDMKVAELKQELKLRSLPVSGTKTELIERLRAYQDQ,0.219 ± 0.061
24,GALIANLDDMKVAELKQELKLRSLPVSGTKTELIERLRAYQDQ,0.301 ± 0.12
25,GALYANLDDMKVAELKQELKLRSLPVSGTKTELIERLRAYQDQ,0.29 ± 0.14
26,GALGANLDDMKVAELKQELKLRSLPVSGTKTELIERLRAYQDQ,0.217 ± 0.064
27,GALMANLDDMKVAELKQELKLRSLPVSGTKTELIERLRAYQDQ,0.196 ± 0.15

row,Variant,abundance fitness
1,GALVANLDDMKVAELKQELKLRSLPVSGTKTELIERLRAYQDQ,0.29 ± 0.098
2,GALPAFLDDMKVAELKQELKLRSLPVSGTKTELIERLRAYQDQ,-0.431 ± 0.1
3,GALPADLDDMKVAELKQELKLRSLPVSGTKTELIERLRAYQDQ,-0.189 ± 0.1
4,GALPAALDDMKVAELKQELKLRSLPVSGTKTELIERLRAYQDQ,-0.229 ± 0.084
5,GALPAKLDDMKVAELKQELKLRSLPVSGTKTELIERLRAYQDQ,0.157 ± 0.074
6,GALPAELDDMKVAELKQELKLRSLPVSGTKTELIERLRAYQDQ,-0.007 ± 0.071
7,GALPALLDDMKVAELKQELKLRSLPVSGTKTELIERLRAYQDQ,-0.124 ± 0.072
8,GALPAHLDDMKVAELKQELKLRSLPVSGTKTELIERLRAYQDQ,-0.661 ± 0.24
9,GALPAGLDDMKVAELKQELKLRSLPVSGTKTELIERLRAYQDQ,0.044 ± 0.074
10,GANPANLDDMKVAELKQELKLRSLPVSGTKTELIERLRAYQDQ,0.128 ± 0.12
11,GADPANLDDMKVAELKQELKLRSLPVSGTKTELIERLRAYQDQ,0.512 ± 0.15
12,GACPANLDDMKVAELKQELKLRSLPVSGTKTELIERLRAYQDQ,0.016 ± 0.083
13,GAFPANLDDMKVAELKQELKLRSLPVSGTKTELIERLRAYQDQ,0.243 ± 0.084
14,GAAPANLDDMKVAELKQELKLRSLPVSGTKTELIERLRAYQDQ,-0.431 ± 0.061
15,GAHPANLDDMKVAELKQELKLRSLPVSGTKTELIERLRAYQDQ,0.426 ± 0.1
16,GASPANLDDMKVAELKQELKLRSLPVSGTKTELIERLRAYQDQ,-0.031 ± 0.12
17,GAKPANLDDMKVAELKQELKLRSLPVSGTKTELIERLRAYQDQ,-0.171 ± 0.083
18,GAEPANLDDMKVAELKQELKLRSLPVSGTKTELIERLRAYQDQ,-0.019 ± 0.069
19,GAWPANLDDMKVAELKQELKLRSLPVSGTKTELIERLRAYQDQ,-0.122 ± 0.14
20,GAMPANLDDMKVAELKQELKLRSLPVSGTKTELIERLRAYQDQ,-0.022 ± 0.098
21,GAIPANLDDMKVAELKQELKLRSLPVSGTKTELIERLRAYQDQ,0.144 ± 0.092
22,GAGPANLDDMKVAELKQELKLRSLPVSGTKTELIERLRAYQDQ,0.028 ± 0.069
23,GARPANLDDMKVAELKQELKLRSLPVSGTKTELIERLRAYQDQ,-0.021 ± 0.054
24,GAVPANLDDMKVAELKQELKLRSLPVSGTKTELIERLRAYQDQ,0.073 ± 0.078
25,GATPANLDDMKVAELKQELKLRSLPVSGTKTELIERLRAYQDQ,-0.598 ± 0.15
26,GAYPANLDDMKVAELKQELKLRSLPVSGTKTELIERLRAYQDQ,0.502 ± 0.15

# Variants of: B2
# Assay: as above
# Conditions: Homo sapiens
row,Variant,abundance fitness
1,TDCSIVSFLARLGCSSCLDYFTTQGLTTIYQIEHYSMDDLASLKIPEQFRHAIWKGILKHRQLHEF,-0.06 ± 0.052
2,TDCSIVSFLARLGCSSCLDYFTTQGLTTIYQIEHYSMDDLASLKIPEQFFHAIWKGILDHRQLHEF,-0.149 ± 0.07
3,TDCSIVSFLVRLGCSSCLDYFTTQGLTTIYQIEHYSMDDLASLKIPEQFRHAIWKGILDHRQLHEF,-0.15 ± 0.039
4,TDCSIVSFLKRLGCSSCLDYFTTQGLTTIYQIEHYSMDDLASLKIPEQFRHAIWKGILDHRQLHEF,-0.092 ± 0.1
5,TDCSIVSFLARLGCSSCLDYFTTQGLTIIYQIEHYSMDDLASLKIPEQFRHAIWKGILDHRQLHEF,-0.192 ± 0.027
6,TDCSIVSFLARLGCSSCLDYFTTQGLTTIYQIEHYSMDDLASLKSPEQFRHAIWKGILDHRQLHEF,-1.04 ± 0.057
7,TDCSIVSFLARLGCSSCLDYFTTQGLTTIYQIEHYSMDDLASLKPPEQFRHAIWKGILDHRQLHEF,-0.865 ± 0.086
8,TDCSIVSFLARLGCSSCLDYFTTQGLTTIYQIEHYSMDKLASLKIPEQFRHAIWKGILDHRQLHEF,-0.093 ± 0.031
9,TDCSIVSFLARLGCSSCLDYFTTQGLTTIYQIEHYSMDDLASLKIPEQFRHAIWKGILDDRQLHEF,-0.13 ± 0.04
10,TDCSIVSFLARIGCSSCLDYFTTQGLTTIYQIEHYSMDDLASLKIPEQFRHAIWKGILDHRQLHEF,0.021 ± 0.036
11,TDCSIVSFLARLGCSSCLDYFTTQGLTTIYQIEHYSVDDLASLKIPEQFRHAIWKGILDHRQLHEF,-0.011 ± 0.027
12,TDCSIVSFLARLGCSSCLDYFTTQTLTTIYQIEHYSMDDLASLKIPEQFRHAIWKGILDHRQLHEF,-0.401 ± 0.039
13,TDCSIVSFLARLGCSSCLDYFTTQCLTTIYQIEHYSMDDLASLKIPEQFRHAIWKGILDHRQLHEF,-0.143 ± 0.028
14,TDCSIVSFLARLGHSSCLDYFTTQGLTTIYQIEHYSMDDLASLKIPEQFRHAIWKGILDHRQLHEF,-0.12 ± 0.035
15,TDCSIVSFLARLGCSSCLDYFTTQGLTTIYQIEHYSMDDLESLKIPEQFRHAIWKGILDHRQLHEF,-0.012 ± 0.028
16,TDCSIVSFLARLGCSSCEDYFTTQGLTTIYQIEHYSMDDLASLKIPEQFRHAIWKGILDHRQLHEF,-0.014 ± 0.066
17,TDCSIVSFLARLGCSSCLDYFTTQGLTTIYQIEHYSMDDLASLKIPEQFRHAIWKGILDHRQNHEF,-0.04 ± 0.034
18,TDCSIVSFLARLGCSSCLDYFTTQGLTTIYGIEHYSMDDLASLKIPEQFRHAIWKGILDHRQLHEF,-0.274 ± 0.031
19,TDCSIVSFLARLGCSSCLDYFTTQGLTTIYQIEHYSMDDLASLKIPEQFRHAIWKGILDHRQLHEM,0.028 ± 0.085
20,TDCSIVSFLARLGCSSCLDYFTTQGLTTIYQIEHYSMDDLASLKIPEQFRHAIWKGILDHRQLHEA,0.05 ± 0.12
21,TDCSIVSFLARLGCSSCLDYFTTQGLTTIYQIEHYSMDDLASLKIPEQFRHAIWKGILDHRQLHES,-0.019 ± 0.046
22,TDCSIKSFLARLGCSSCLDYFTTQGLTTIYQIEHYSMDDLASLKIPEQFRHAIWKGILDHRQLHEF,0.009 ± 0.032
23,TDCSIVSFLARLGCSSCLDYFTTQGLDTIYQIEHYSMDDLASLKIPEQFRHAIWKGILDHRQLHEF,-0.057 ± 0.029
24,TDCSIVSFLARLGCSSCLDYFQTQGLTTIYQIEHYSMDDLASLKIPEQFRHAIWKGILDHRQLHEF,-0.026 ± 0.039
25,TDCSIVSFLARLQCSSCLDYFTTQGLTTIYQIEHYSMDDLASLKIPEQFRHAIWKGILDHRQLHEF,-0.04 ± 0.094
26,TDCSIVSFLARLICSSCLDYFTTQGLTTIYQIEHYSMDDLASLKIPEQFRHAIWKGILDHRQLHEF,-0.814 ± 0.41

# Reference: the Human Domainome abundance scans (Beltran et al. 2025)
